Data reported in US20240279288A1, “APPLICATION OF PLANT JAZ PROTEINS AND DERIVED POLYPEPTIDES IN PREVENTION AND TREATMENT OF HUMAN AND ANIMAL TUMORS” (ANYANG INSTITUTE OF SINO-COTTON INDUSTRY INNOVATION, priority 2021, published 2024).

Assays:
[1] = test system: lung cancer cells A549; experiment: CCK8 cell viability detection, A549; type: cell-based, human; conditions: CCK8, 24 h treatment; read-out: IC50, inhibition of A549 cells
Description: CCK8 cell viability detection: cell suspension was seeded in 96-well plates at a concentration of 5×10^4 cells/ml (100 μL/well). The plates were placed in the incubator for pre-culture (at 37° C., 5% CO2), and control and protein agents were added to each well 24 h after seeding. The plates were then placed in the incubator for 24 h, followed by addition of 10 μL CCK8 solution into each well and incubation of the plates in the incubator for 0.5-2 h before the absorbance measurement at 450 nm using a microplate reader.
Analysis of effect of GhJAZ1 protein on the cell cycle and apoptosis of tumor cells

[2] = test system: downstream genes of c-Myc in normal cell MCF10A; experiment: RT-PCR of c-Myc downstream genes, MCF10A; type: cell-based, human
Description: Identification at the RNA level: RNA was extracted using RNA extraction kit (RNAprep Pure Polysaccharide Polyphenol Plant Total RNA Extraction Kit (DP441), manufacturer: TIANGEN BIOTECH (BEIJING) CO., LTD.), and then cDNA was obtained using two-step reverse transcription kit (a third-generation premix for two-step de-genomization and reverse transcription, Cat. No.: MR05201). cDNA as a template was added into a 96-well plate, with addition of SYBR®Green I chimeric dye (an antibody dye quantitative PCR premix, Cat. No.: MQ10101) and gene primers for three-step qPCR amplification. Finally, the relative gene expression was calculated based on the Ct value.
Wherein, the sequences of primers were as follows: […]

[3] = test system: GhNINJA; experiment: Yeast two hybrid with GhNINJA; type: binding, cotton
GhNINJA, sequence (as listed by the source): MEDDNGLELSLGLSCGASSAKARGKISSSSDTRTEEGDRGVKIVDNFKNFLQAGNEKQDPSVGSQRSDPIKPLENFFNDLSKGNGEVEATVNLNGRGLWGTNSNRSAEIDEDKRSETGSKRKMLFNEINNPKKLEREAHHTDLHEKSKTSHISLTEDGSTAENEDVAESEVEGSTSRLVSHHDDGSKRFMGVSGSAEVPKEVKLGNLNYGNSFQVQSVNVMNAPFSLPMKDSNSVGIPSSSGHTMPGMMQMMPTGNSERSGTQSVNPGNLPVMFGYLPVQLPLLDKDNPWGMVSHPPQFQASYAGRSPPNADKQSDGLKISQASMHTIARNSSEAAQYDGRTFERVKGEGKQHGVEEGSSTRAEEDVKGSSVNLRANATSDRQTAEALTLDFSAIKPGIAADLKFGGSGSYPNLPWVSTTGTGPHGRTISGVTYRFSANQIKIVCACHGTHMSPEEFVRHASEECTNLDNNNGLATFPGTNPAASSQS
Description: The study on Arabidopsis had shown that the inhibition of JAZ protein on JA signaling was mainly achieved by inhibiting the transcription factor function of MYC, which had been experimentally verified by us in cotton. Based on the phylogenetic tree of Arabidopsis and cotton JAZs, we screened 6 cotton JAZs (GhJAZ1, GhJAZ7, GhJAZ9, GhJAZ10, GhJAZ11 and GhJAZ31), which were analyzed with GhMYC2, GhNINJA, GhTPL, GhHDA6, and GhCOI1 for yeast two hybrid. The amino acid sequence of GhJAZ1 was set forth in SEQ ID No. 4, and the corresponding encoding gene sequence was set forth in SEQ ID No. 39; the amino acid sequence of GhJAZ7 was set forth in SEQ ID No. 7, and the corresponding encoding gene sequence was set forth in SEQ ID No. 42; the amino acid sequence of GhJAZ9 was set forth in SEQ ID No. 2, and the corresponding encoding gene sequence was set forth in SEQ ID No. 37; the amino acid sequence of GhJAZ10 was set forth in SEQ ID No. 3, and the corresponding encoding gene sequence was set forth in SEQ ID No. 38; the amino acid sequence of GhJAZ11 was set forth in SEQ ID No. 5, and the corresponding encoding gene sequence was set forth in SEQ ID No. 40; and the amino acid sequence of GhJAZ31 was set forth in SEQ ID No. 9, and the corresponding encoding gene sequence was set forth in SEQ ID No. 44. […]

[4] = target: c-Myc (Homo sapiens, UniProt P01106); experiment: LUC experiment in tobacco leaves with c-Myc; type: binding; design: with the full length of c-Myc and NMYC, respectively; expressed in transfected cells; host or cells: yeast Y2HGold
c-Myc, sequence (P01106 whole entry): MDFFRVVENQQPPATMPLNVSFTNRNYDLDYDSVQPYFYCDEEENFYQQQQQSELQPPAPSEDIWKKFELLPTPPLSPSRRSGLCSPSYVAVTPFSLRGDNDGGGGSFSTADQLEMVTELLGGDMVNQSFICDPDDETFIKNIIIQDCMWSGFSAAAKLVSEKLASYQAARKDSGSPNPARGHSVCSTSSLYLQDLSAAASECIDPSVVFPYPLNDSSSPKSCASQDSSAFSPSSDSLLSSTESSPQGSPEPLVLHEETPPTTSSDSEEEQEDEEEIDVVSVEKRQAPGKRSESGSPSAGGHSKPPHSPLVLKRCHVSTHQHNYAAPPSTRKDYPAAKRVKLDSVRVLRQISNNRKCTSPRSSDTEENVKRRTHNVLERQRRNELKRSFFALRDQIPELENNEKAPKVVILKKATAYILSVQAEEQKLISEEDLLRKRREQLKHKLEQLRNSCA
Excerpt: Using the method of LUC experiment, c-Myc (NCBI accession number: NM_002467.6) was subcloned to pCAMBIA NLuc vector (Chen, H., et al. “Firefly Luciferase Complementation Imaging Assay for Protein-Protein Interactions in Plants.” Plant Physiology 146.2(2008):368-376.) between the KpnI and SalI cleavage sites, and GhJAZ1 (SEQ ID No. 39) was subcloned to pCAMBIA-CLuc vector (Chen, H., et al. “Firefly Luciferase Complementation Imaging Assay for Protein-Protein Interactions in Plants.” Plant Physiology 146.2(2008):368-376.) between the KpnI and SalI cleavage sites. The constructed recombinant plasmids verified to be positive by sequencing were transformed into Agrobacterium GV3101 (pSoup-p19) (Shanghai Weidi biology technology co., Ltd, Cat. No.: AC1003), which were co-transfected into tobacco leaves. 2-3 days after injection, the infected leaves coated with the fluorescent substrate were placed in a dark chamber of the instrument for at least 6 min before taking images to quench fluorescence, followed by observation on the Nightowl-II LB983 instrument, using IndigoBasic software under the luciferase-5 min setting conditions. Cultivation was performed after co-infection. If there is interaction, LUC luciferase is expressed, and luminescence is detected after substrate application. As shown in F in FIG. 6, GhJAZ1 interacts with c-Myc.

B1: GhJAZ1: cotton JAZ1 protein, gene number Gh_A05G0260, sequence SEQ ID No. 4; prokaryotically expressed with His tag, about 30 KD (protein)
chain: MSSCSESTAMKPARSPEKPSFAQTCNLLSQYLKEKGSFGDLSLGMTCNVEANGTPVVPPPTMNLFPLNDKSDDVCGRNGGNPKNLTSMDLFPQQAGLASKDDSPNKLEPQTAPMTIFYGGQVIVFNDFPANKAKEIMLLASNSSSQSNNSFNPIPFTSSIARSPIESSIGVPPTSKPVHPAQRAVPGDLPIARRASLHRFLEKRKDRITAKAPYQINNSAAAPSLSGDNKSWLGLAAQSP
modifications: His tag
notes: prokaryotically expressed with His tag, about 30 KD
[1]
  IC50: 697 nM
[2]
  expression of Bcl2 and MCM5: significantly decreased but at a minor extent
[2]; at a minor extent
  expression of P21C, CNB1, CCND1, and CCNE1: significantly increased
[3]
  interaction with GhNINJA: interacted
[4]
  interaction with c-Myc: interacts
